The values below come from patent US20240025955.

In this data set the test system is MMP3 resistant rAgrin (SEQ ID NO: 19).

With MMP3, the MMP3 degradation result is “is resistant to MMP3 degradation” and the “degradation of Agrin in the presence of increasing amounts of MMP3 for 24 hours” value is recorded as “mutation of the MMP-3 cleavage site reduces degradation of Agrin (polypeptide defined by SEQ ID NO: 19)”.
